The results in this text go back to CN107880130A (SHENZHEN GUOCHUANG NANO ANTIBODY TECH CO LTD, dated 2018).

One test deals with 癌胚抗原 (CEA, CEACAM5) (UniProt P06731). Nature of the test: SPR (Biacore T100), antibody captured by Protein A, antigen injected at 100μg/ml. In general terms: In SPR one partner is held on a chip, and binding of the other changes the refractive index at the surface.
Another test deals with T1, CEACAM6 (UniProt P40199 35-320, limits assumed).
T1 sequence (looked up): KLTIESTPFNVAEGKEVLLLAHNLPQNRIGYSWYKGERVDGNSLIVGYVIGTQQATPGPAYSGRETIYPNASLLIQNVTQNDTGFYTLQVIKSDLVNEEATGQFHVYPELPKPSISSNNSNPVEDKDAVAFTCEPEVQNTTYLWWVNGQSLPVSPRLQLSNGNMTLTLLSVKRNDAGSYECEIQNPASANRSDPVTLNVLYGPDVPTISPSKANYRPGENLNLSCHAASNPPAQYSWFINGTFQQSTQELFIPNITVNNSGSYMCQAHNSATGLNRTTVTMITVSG
Nature of the test: SPR (Biacore T100), antibody captured by Protein A, antigen injected.

In another test the target is T2, HE4 (UniProt Q14508 31-124).
T2 sequence (looked up): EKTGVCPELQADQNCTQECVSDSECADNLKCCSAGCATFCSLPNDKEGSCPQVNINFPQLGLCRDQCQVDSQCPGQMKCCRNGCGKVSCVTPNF
Described as above.

In the next test the target is T3, CEACAM8 (UniProt P31997 35-320, limits assumed).
T3 sequence (looked up): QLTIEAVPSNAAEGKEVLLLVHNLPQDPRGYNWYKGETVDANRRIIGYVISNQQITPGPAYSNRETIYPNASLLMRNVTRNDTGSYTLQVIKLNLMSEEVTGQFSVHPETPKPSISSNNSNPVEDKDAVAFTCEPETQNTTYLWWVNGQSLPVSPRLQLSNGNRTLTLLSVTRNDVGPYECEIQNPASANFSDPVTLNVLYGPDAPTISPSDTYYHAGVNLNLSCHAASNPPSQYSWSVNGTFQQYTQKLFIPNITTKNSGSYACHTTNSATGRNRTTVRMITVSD
The description is as above.

A further test has as its target T4, AFP (UniProt P02771 19-609).
T4 sequence (looked up): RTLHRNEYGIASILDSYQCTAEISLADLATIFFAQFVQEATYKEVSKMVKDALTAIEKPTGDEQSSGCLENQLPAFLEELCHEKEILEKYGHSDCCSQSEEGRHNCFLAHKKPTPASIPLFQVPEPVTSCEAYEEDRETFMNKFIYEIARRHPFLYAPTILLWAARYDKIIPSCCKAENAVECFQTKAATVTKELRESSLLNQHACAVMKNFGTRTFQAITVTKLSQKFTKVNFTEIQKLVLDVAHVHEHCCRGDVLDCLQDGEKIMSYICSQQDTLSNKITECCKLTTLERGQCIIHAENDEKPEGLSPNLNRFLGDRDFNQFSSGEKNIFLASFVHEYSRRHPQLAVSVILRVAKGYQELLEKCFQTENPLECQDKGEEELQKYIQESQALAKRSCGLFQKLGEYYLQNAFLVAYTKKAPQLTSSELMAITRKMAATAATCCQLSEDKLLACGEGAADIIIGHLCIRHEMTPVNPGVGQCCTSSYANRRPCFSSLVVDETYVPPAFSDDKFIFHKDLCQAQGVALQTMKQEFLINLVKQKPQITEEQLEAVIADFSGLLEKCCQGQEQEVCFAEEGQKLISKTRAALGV
The test is described as above.

A further test concerns the target T5, CEACAM1 (UniProt P13688 35-428, limits assumed).
T5 sequence (looked up): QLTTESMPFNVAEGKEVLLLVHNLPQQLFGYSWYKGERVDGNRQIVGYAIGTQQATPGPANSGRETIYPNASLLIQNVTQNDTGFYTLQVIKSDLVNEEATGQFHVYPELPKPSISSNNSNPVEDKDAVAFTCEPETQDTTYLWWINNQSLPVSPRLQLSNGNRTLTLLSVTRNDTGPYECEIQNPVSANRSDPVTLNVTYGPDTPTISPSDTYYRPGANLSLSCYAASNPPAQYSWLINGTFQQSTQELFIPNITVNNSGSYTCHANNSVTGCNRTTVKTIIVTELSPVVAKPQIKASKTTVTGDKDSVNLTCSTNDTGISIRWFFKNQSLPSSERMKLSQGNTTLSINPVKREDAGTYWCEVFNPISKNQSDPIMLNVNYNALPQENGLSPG
Described as above.

The next test addresses T6, CEACAM3 (UniProt P40198 35-155, limits assumed).
T6 sequence (looked up): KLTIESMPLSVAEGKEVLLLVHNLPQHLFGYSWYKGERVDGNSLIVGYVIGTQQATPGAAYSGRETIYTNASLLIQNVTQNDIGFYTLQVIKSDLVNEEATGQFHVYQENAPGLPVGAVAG
The test is described as above.

B1: 2D5 连接至带有恒定区的载体 (2D5 nanobody with constant region) (Fc fusion)
chain: ESGGGLVQAGGSLRLSCVASGRTFSSHPMGWFRQAPGKEREFVAGISWSGGSTHYADSVKGRFTISRDTAKNTVYLQMNSLKPEDTAVYYCNAALSERTPIATMPSQYDYWGQGT
notes: not shown: constant region from the vector
Molecule B1 had a 结合 (SPR binding response) with 癌胚抗原 (CEA, CEACAM5) of 53.3. For the same molecule, the binding result in the test with CEACAM6, with HE4, in the test with CEACAM8, with AFP, with CEACAM1 and in the test with CEACAM3 was “no binding (tested: 100μg/ml)” throughout.
